From patent US20250320284A1 (AC IMMUNE, published 2025) come the findings set out here.

The target in assay [1] is T1, CARD domain of human ASC (human, UniProt Q9ULZ3 107-195).
T1 construct: biotinylated in BLI; also called hCARD; human CARD
T1 sequence: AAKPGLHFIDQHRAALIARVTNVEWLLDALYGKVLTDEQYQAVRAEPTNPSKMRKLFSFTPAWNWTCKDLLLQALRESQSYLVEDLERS
As to the kind of experiment: ELISA, coated hCARD. On the technique in general: ELISA stands for enzyme-linked immunosorbent assay.

Assay [2] addresses T2, human ASC (apoptosis associated speck-like protein containing a caspase-recruitment domain) (human, UniProt Q9ULZ3 1-195).
T2 construct: recombinant hASC in ELISA and SPR; endogenous ASC (cytoplasmic or specks) in Western blot and immunofluorescence; also called hASC; PYCARD
The experiment in a line: SPR avidity mode, ASC immobilized.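 Note: Single-cycle SPR kinetics on Biacore T200, antibodies injected at 1.2–100 nM (3-fold steps), 300 s association, 900 s dissociation, double-referenced, 1:1 kinetic model fit.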

The target of assay [3] is T3, PYD domain of human ASC (human, UniProt Q9ULZ3 1-91, limits assumed).
T3 construct: biotinylated in BLI; His/MBP-tagged in the alanine ELISA; also called hPYD; human PYD
T3 sequence (Q9ULZ3 1-91 limits assumed): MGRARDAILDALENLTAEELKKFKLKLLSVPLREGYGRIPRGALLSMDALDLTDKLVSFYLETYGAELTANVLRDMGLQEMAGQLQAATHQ
As to the kind of experiment: ELISA, coated hPYD.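 Note: monoclonal antibody binding to plate-coated human ASC PYD measured by ELISA, with a phosphatase substrate absorbance read-out and EC50 from a variable slope curve fit.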

Assay [4] deals with T4, mouse ASC (mouse, UniProt Q9EPB4 1-193).
T4 construct: recombinant mASC in ELISA and SPR; endogenous ASC of J774.A1 cells in Western blot and immunofluorescence; also called mASC
T4 sequence: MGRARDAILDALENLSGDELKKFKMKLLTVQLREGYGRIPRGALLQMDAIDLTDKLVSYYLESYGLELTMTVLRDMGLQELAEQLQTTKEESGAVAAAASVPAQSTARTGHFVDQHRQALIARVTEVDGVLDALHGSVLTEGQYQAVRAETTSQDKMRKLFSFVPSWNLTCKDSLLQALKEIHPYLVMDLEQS
The experiment in a line: Western blot, J774.A1 mouse macrophage lysate. (In western blotting, separated proteins are transferred to a membrane and probed.)

In assay [5] the target is T2, human ASC (apoptosis associated …). As to the kind of experiment: ELISA, coated hASC.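 Note: antibody binding to plate-coated recombinant human ASC, read as phosphatase substrate absorbance, EC50 from four-parameter variable-slope fit.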
The target is the same in assay [6]. The experiment in a line: SPR affinity mode, mAb captured.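 Note: Single-cycle SPR kinetics with mAbs captured on goat anti-mouse antibody, double-referenced against blank flow cell and buffer cycle, fitted by a 1:1 kinetic model.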
The target of assay [7] is T4, mouse ASC. As to the kind of experiment: SPR avidity mode, ASC immobilized.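 Note: Single-cycle SPR kinetics on Biacore T200, antibodies injected at 1.2–100 nM (3-fold steps), 300 s association, 900 s dissociation, double-referenced, 1:1 kinetic model fit.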
Assay [8] deals with T4, mouse ASC. The experiment in a line: ELISA, coated mASC.
For assay [9], the target named is T4, mouse ASC. As to the kind of experiment: ELISA, coated mASC; ELISA on mASC protein.
The target of assay [10] is T4, mouse ASC. The experiment in a line: SPR avidity mode, ASC immobilized; SPR avidity mode, mASC covalently immobilized, mAb as analyte.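 Note: Single-cycle SPR kinetics on Biacore T200, antibodies injected at 1.2–100 nM (3-fold steps), 300 s association, 900 s dissociation, double-referenced, 1:1 kinetic model fit.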
Assay [11] has as its target T4, mouse ASC. As to the kind of experiment: SPR affinity mode, mAb captured; SPR affinity mode, mAb captured by Fc, mASC in solution.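 Note: Single-cycle SPR kinetics with mAbs captured on goat anti-mouse antibody, double-referenced against blank flow cell and buffer cycle, fitted by a 1:1 kinetic model.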
The target of assay [12] is T4, mouse ASC. As to the kind of experiment: SPR affinity mode, mAb captured.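 Note: Single-cycle SPR kinetics with mAbs captured on goat anti-mouse antibody, double-referenced against blank flow cell and buffer cycle, fitted by a 1:1 kinetic model.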
Assay [13] deals with T2, human ASC (apoptosis associated …). As to the kind of experiment: ELISA, coated hASC; ELISA on hASC protein.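 Note: antibody binding to plate-coated recombinant human ASC, read as phosphatase substrate absorbance, EC50 from four-parameter variable-slope fit.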
For assay [14] the target is unchanged. The experiment in a line: SPR avidity mode, ASC immobilized; SPR avidity mode, hASC covalently immobilized, mAb as analyte.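 Note: Single-cycle SPR kinetics on Biacore T200, antibodies injected at 1.2–100 nM (3-fold steps), 300 s association, 900 s dissociation, double-referenced, 1:1 kinetic model fit.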
Assay [15] shares this target. The experiment in a line: SPR affinity mode, mAb captured; SPR affinity mode, mAb captured by Fc, hASC 2.2-180 nM in solution.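 Note: Single-cycle SPR kinetics with mAbs captured on goat anti-mouse antibody, double-referenced against blank flow cell and buffer cycle, fitted by a 1:1 kinetic model.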
In assay [16] the target is T4, mouse ASC. As to the kind of experiment: cell-based or functional assay.
Assay [17] deals with T2, human ASC (apoptosis associated …). The experiment in a line: SPR affinity mode, steady-state fit, apparent KD.
Assay [18] has the same target. As to the kind of experiment: cell-based or functional assay.
In assay [19] the target is T4, mouse ASC. The experiment in a line: cell-based or functional assay. The source holds these as a separate data set.

B1: ACI-8016-413G10A5-AB1 (antibody, V domains shown)
VH: QVQLKESGPGLVAPSQSLSITCTVSGFSLTSYGVHWVRQPPGKGLEWLGVIWAGGSTNYNSALMSRLSISKDNSKSQVFLKMNSLQTADTAMYYCARWDYVNSYEAMDYWGQGTSVTVSS
VL: DVVMTQTPLSLPVSLGDQASISCRSSQSLVHSNGNTYLHWYLQKPGQSPKLLIYKVSNRFSGVPDRFSGSGSGTDFTLKISRVEAEDLGVYFCSQSTHVPYTFGGGTKLEIK
Take B1: the EC50 in assay [1] worked out at 0.06 nM; in [5] it was 0.05 nM. Also, the values for the Kd in assay [2] and in assay [6] were 0.01 nM and 0.13 nM, respectively. Besides, the koff in assay [2] worked out at 1.2e-06 s⁻¹; in [6] it was 2.2e-05 s⁻¹. The kon came out at 92000 M⁻¹ s⁻¹ in assay [2] and 160000 M⁻¹ s⁻¹ in [6]. Also, the binding result in [3] and in [4] was “no binding” each time.

B2: ACI-8019-2314F6H11-AB1 (antibody, V domains shown)
VH: QVQVQQSGADLARPGASVKLSCKASGYTFTNYGINWVKQRTGQGLEWIGEIYPKNIDIYYNEKFKGKATLTADKSSSTAYMELRSLTSEDSAVYFCGRSSFGFSGNYAMDYWGQGTSVTVSS
VL: DVVMTQTPLSLPVSLGDQASISCRSSQNLIHSNGITYLHWYLQKPGQSPKLLIYKVSNRFSGVPHRFSGSGSGTDFTLKISRVEAEDLGVYFCSQSTHVPWTFGGGTKLEIK
Regarding B2, in assay [2], the Kd was found to be 0.91 nM, the koff stood at 8e-05 s⁻¹ and the kon turned out to be 88000 M⁻¹ s⁻¹. This molecule also returned a Kd in [7] of 16.1 nM. Further, the EC50 in assay [5] is 0.1 nM. Also, the EC50 in [8] turned out to be 0.2 nM.

B3: ACI-8016-416E6G4-AB1 (antibody, V domains shown)
VH: QVQLKQSGPGLVQPSQSLSITCTVSGISLSSYGLHWVRQSPGKGLEWLGVIWSGGNTDYSATFISRLSISKDNSKSQVFFKMDSLQVDDTAIYYCARNEVWGQGTSVTVSS
VL: not shown
With B3, the EC50 in assay [9], in assay [3] and in assay [5] was 0.07 nM each time. In addition, the binding result in assay [1] is recorded as “no binding”. Moreover, the Kd in assay [2] came out at 0.85 nM; in assay [10], 4.88 nM; in [6] it was 14.9 nM; in assay [12], 14.5 nM. For the same molecule, the koff was determined as 2.7e-05 s⁻¹ in assay [2], 0.00013 s⁻¹ in assay [10], 0.0025 s⁻¹ in assay [6] and 0.00053 s⁻¹ in [12]. Besides, the kon was found to be 39000 M⁻¹ s⁻¹ in assay [2], 35000 M⁻¹ s⁻¹ in assay [10], 34000 M⁻¹ s⁻¹ in assay [11] and 280000 M⁻¹ s⁻¹ in [6].

B4: ACI-8016-203B12C3-AB1 (antibody, V domains shown)
VH: QVQLKQSGPGLVQPSQSLSITCKVSDFSLSHYGVHWVRQSPGKGLEWLGVIWSGGTTEYNEAFISRLTISKDNSKSQILFRMNSLQPADTAIYYCARKGDFYGDYFDYWGQGTTLTVSS
VL: DIQMTQTSSSLSASLGDRVTISCRASQDISNYLNWYQQRPDGTVKLLIYYTSKVHSGVPSRFSGSGSGTDFSLTISNLEQEDFATYYCQQGNTRPFTFGGGTKLEIK
Turning to B4, the EC50 in assay [1] is 0.067 nM; in assay [13], 0.1 nM. The binding result in assay [3] was “no binding”. For the same molecule, the Kd in assay [14] was 10.2 nM; in [15], 42 nM.

B5: ACI-8016-23E5F7-AB1 (antibody, V domains shown)
VH: QVQLQQSEAELARPGASVKLSCKASGYTFTSYGIFWVKQRTGQGLEWIGEIYPRSGNTYYNENFRDKATLTADKSSSTAYMELRSLTSEDSAVYFCARQRDDYWGQGTTLTVSS
VL: QIVLTQSPAIMSASPGEKVTITCSVSSSVSYMYWFQQKPGTSPKVWIYSTSNLASGVPARFSGRGSGTSYSLTISRMEAEDAATYYCQQRSSYPFTFGSGTKLEIK
notes: also called 936.23E5F7
Consider B5, for which the binding result in assay [1] is “no binding”. For the same molecule, the EC50 in assay [3] is 0.13 nM; in [5], 0.12 nM; in [8] it was 0.15 nM. The “% IL-1β inhibition, mouse primary microglia, 420 nM mAb” value in assay [16] is 69.4%. Also, the Kd turned out to be 27.1 nM in assay [17] and 10.3 nM in assay [12]. The molecule also yielded a koff in [12] of 0.00264 s⁻¹. The molecule also gave a kon in assay [12] of 261000 M⁻¹ s⁻¹. For the same molecule, the “Human ASC polymerization assay, IC50” value in assay [18] came out at 5.8 nM. Also, in assay [19], the “Mouse ASC polymerization assay, IC50” value came out at 21 nM.

The term EC50 denotes the concentration needed to bring the measured effect to its halfway point. As usually defined, the koff is a measure of how fast the partners let go of each other. Read a high koff as a short-lived complex. In general, kon refers to a measure of how fast the partners come together.
